The values that follow come from PMC11417369, “DNA sequence and chromatin differentiate sequence-specific transcription factor binding in the human malaria parasite Plasmodium falciparum”.

Experiment in all cases: gcPBM; about 25 ug protein; PBS, 1% milk, 0.2 mg/ml BSA, salmon testes DNA, 0.03% Triton X-100
Common to all, as to conditions: tags: N-terminal GST (pGEX-4T-1), kept; label: surface-attached array probe

One data set addresses T1, AP2-HC D1 (Plasmodium falciparum, UniProt Q8IKR9 1316-1374).
T1 sequence: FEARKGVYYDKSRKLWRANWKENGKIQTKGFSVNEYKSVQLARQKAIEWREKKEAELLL

For another data set, the target named is T2, AP2-LT D1 (Plasmodium falciparum, UniProt Q8IAM1 2520-2577).
T2 sequence: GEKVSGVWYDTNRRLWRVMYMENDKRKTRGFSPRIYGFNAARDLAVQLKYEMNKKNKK

For another data set, the target named is T3, PF3D7_0420300 D1 (Plasmodium falciparum, UniProt Q8I1N6 1956-2015).
T3 sequence: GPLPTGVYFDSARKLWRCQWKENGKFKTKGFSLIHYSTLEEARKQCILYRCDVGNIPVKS

B1: CACACA_site8718 (dsDNA)
DNA 1: ATAATTTGTGGACACACACACACACCGACATATATA
DNA 2: TATATATGTCGGTGTGTGTGTGTGTCCACAAATTAT
On to B1, for which the binding signal with AP2-HC D1 was 11.8 ln median PBM intensity, better of two orientations.

B2: CACACA_site1716 (dsDNA)
DNA 1: GGGGGGGGAGGGTGAATACACACGTAATAATCATAA
DNA 2: TTATGATTATTACGTGTGTATTCACCCTCCCCCCCC
As to B2, the binding signal with AP2-LT D1 is 10 ln median PBM intensity, better of two orientations; with PF3D7_0420300 D1 it was 10.5 ln median PBM intensity, better of two orientations.

B3: CACACA_site5152 (dsDNA)
DNA 1: GTATAATATGAACACACACACACACCCAAAAAAAAA
DNA 2: TTTTTTTTTGGGTGTGTGTGTGTGTTCATATTATAC
As for B3, in the data set with AP2-HC D1, the binding signal is 11.9 ln median PBM intensity, better of two orientations.

B4: CACACA_site8824 (dsDNA)
DNA 1: GATAATTATGGACACACACACACACCCACAACTAAA
DNA 2: TTTAGTTGTGGGTGTGTGTGTGTGTCCATAATTATC
As to B4, the binding signal in the data set with AP2-HC D1 is 12 ln median PBM intensity, better of two orientations.

B5: CACACA_site7288 (dsDNA)
DNA 1: AAAAAAAAAAAAAACACACACACACGCACATATACA
DNA 2: TGTATATGTGCGTGTGTGTGTGTTTTTTTTTTTTTT
With B5, in the data set with AP2-HC D1, the binding signal is 11.9 ln median PBM intensity, better of two orientations.

B6: CACACA_site2857 (dsDNA)
DNA 1: AAAAAAAACAGACACACACACATACACATACATACA
DNA 2: TGTATGTATGTGTATGTGTGTGTGTCTGTTTTTTTT
For B6, the binding signal in the data set with AP2-HC D1 was 11.8 ln median PBM intensity, better of two orientations.

B7: CACACA_site903 (dsDNA)
DNA 1: CCATAAAAAGGATACACACACACACCCACATATATA
DNA 2: TATATATGTGGGTGTGTGTGTGTATCCTTTTTATGG
As to B7, in the data set with AP2-HC D1, the binding signal is 11.9 ln median PBM intensity, better of two orientations.

B8: CACACA_site4909 (dsDNA)
DNA 1: AAAAAATCAAAACACACACACACACTAGAAAAAAAA
DNA 2: TTTTTTTTCTAGTGTGTGTGTGTGTTTTGATTTTTT
As for B8, the binding signal in the data set with AP2-HC D1 was 11.8 ln median PBM intensity, better of two orientations.

B9: CACACA_site1444 (dsDNA)
DNA 1: AAAAAATCAAAACACACACACACACCCAAAAAAAAA
DNA 2: TTTTTTTTTGGGTGTGTGTGTGTGTTTTGATTTTTT
Take B9: the binding signal in the data set with AP2-HC D1 is 11.8 ln median PBM intensity, better of two orientations.

B10: CACACA_site2826 (dsDNA)
DNA 1: AGATATAAGAAAAGCACACACACACCCAAAAAAAAA
DNA 2: TTTTTTTTTGGGTGTGTGTGTGCTTTTCTTATATCT
On to B10, for which the binding signal with AP2-HC D1 is 12.1 ln median PBM intensity, better of two orientations.

B11: CACACA_site5283 (dsDNA)
DNA 1: AATATAAATAAAAACACACACACACCGATATATATA
DNA 2: TATATATATCGGTGTGTGTGTGTTTTTATTTATATT
Regarding B11, the binding signal with AP2-LT D1 is 10.3 ln median PBM intensity, better of two orientations; with PF3D7_0420300 D1, 10.3 ln median PBM intensity, better of two orientations.

B12: CACACA_site8849 (dsDNA)
DNA 1: AAAAAAAAAAAACACACACACACACCGATACATACA
DNA 2: TGTATGTATCGGTGTGTGTGTGTGTTTTTTTTTTTT
On to B12, for which the binding signal in the data set with AP2-HC D1 is 12 ln median PBM intensity, better of two orientations.

B13: CACACA_site4551 (dsDNA)
DNA 1: AAAAAAAAAAAACACACACACACACTAGTACATACA
DNA 2: TGTATGTACTAGTGTGTGTGTGTGTTTTTTTTTTTT
For B13, the binding signal with AP2-HC D1 is 11.8 ln median PBM intensity, better of two orientations.

B14: CACACA_site6304 (dsDNA)
DNA 1: CACACGCACGAACACACACACACACGCGCACATATA
DNA 2: TATATGTGCGCGTGTGTGTGTGTGTTCGTGCGTGTG
Turning to B14, the binding signal is 10.7 ln median PBM intensity, better of two orientations with AP2-LT D1 and 10.4 ln median PBM intensity, better of two orientations with PF3D7_0420300 D1.

B15: CACACA_site6093 (dsDNA)
DNA 1: TATATAAATGGACACACACACACCTTATAATTATTA
DNA 2: TAATAATTATAAGGTGTGTGTGTGTCCATTTATATA
In the case of B15, the binding signal with AP2-HC D1 was 11.9 ln median PBM intensity, better of two orientations.

B16: CACACA_site6254 (dsDNA)
DNA 1: TATTTATTAAGACACACACACACACGCACAAAATAA
DNA 2: TTATTTTGTGCGTGTGTGTGTGTGTCTTAATAAATA
Turning to B16, the binding signal in the data set with AP2-HC D1 was 12.1 ln median PBM intensity, better of two orientations.

B17: CACACA_site4405 (dsDNA)
DNA 1: TATATATATCTGTACACACACACATATAAATAAATA
DNA 2: TATTTATTTATATGTGTGTGTGTACAGATATATATA
Regarding B17, the binding signal with AP2-LT D1 was 10.1 ln median PBM intensity, better of two orientations; with PF3D7_0420300 D1, 10 ln median PBM intensity, better of two orientations.

B18: CACACA_site6551 (dsDNA)
DNA 1: ATAAAAAGGAGACACACACACACACGCATATTTATA
DNA 2: TATAAATATGCGTGTGTGTGTGTGTCTCCTTTTTAT
B18: in the data set with AP2-HC D1, the binding signal is 12 ln median PBM intensity, better of two orientations.

B19: CACACA_site904 (dsDNA)
DNA 1: ATAAAAAGGAAACACACACACACACCCATATATATA
DNA 2: TATATATATGGGTGTGTGTGTGTGTTTCCTTTTTAT
B19: the binding signal with AP2-HC D1 was 11.9 ln median PBM intensity, better of two orientations.

B20: CACACA_site1515 (dsDNA)
DNA 1: AGTACAGACATAGACACACACACACCCATAAAAAAA
DNA 2: TTTTTTTATGGGTGTGTGTGTGTCTATGTCTGTACT
In the case of B20, the binding signal in the data set with AP2-HC D1 is 12.1 ln median PBM intensity, better of two orientations.

B21: CACACA_site4111 (dsDNA)
DNA 1: CCCCCCGTGTTATATACACACATAATCAAATAAAAT
DNA 2: ATTTTATTTGATTATGTGTGTATATAACACGGGGGG
As for B21, the binding signal with AP2-LT D1 is 10.8 ln median PBM intensity, better of two orientations; with PF3D7_0420300 D1, 10.8 ln median PBM intensity, better of two orientations.

B22: CACACA_site2302 (dsDNA)
DNA 1: GACATATTCCCCCCCACACACACACCCACATACATA
DNA 2: TATGTATGTGGGTGTGTGTGTGGGGGGGAATATGTC
Turning to B22, the binding signal in the data set with AP2-LT D1 is 10.9 ln median PBM intensity, better of two orientations; with PF3D7_0420300 D1, 10.9 ln median PBM intensity, better of two orientations.

B23: CACACA_site6643 (dsDNA)
DNA 1: AACATACACATATACACACACACATATATACCTATA
DNA 2: TATAGGTATATATGTGTGTGTGTATATGTGTATGTT
For B23, in the data set with AP2-HC D1, the binding signal was 11.9 ln median PBM intensity, better of two orientations.

B24: CACACA_site6310 (dsDNA)
DNA 1: ATACATCAAGGACACACACACACACGCACACGCACA
DNA 2: TGTGCGTGTGCGTGTGTGTGTGTGTCCTTGATGTAT
As to B24, the binding signal with AP2-LT D1 was 10.6 ln median PBM intensity, better of two orientations; with PF3D7_0420300 D1, 10.4 ln median PBM intensity, better of two orientations.

B25: CACACA_site8058 (dsDNA)
DNA 1: AACATACATAAACACACACACACACCCACACCCACA
DNA 2: TGTGGGTGTGGGTGTGTGTGTGTGTTTATGTATGTT
For B25, the binding signal with AP2-LT D1 is 10.6 ln median PBM intensity, better of two orientations; in the data set with PF3D7_0420300 D1 it was 10.4 ln median PBM intensity, better of two orientations.

B26: CACACA_site4435 (dsDNA)
DNA 1: TACACAGACGGACACACACACACACTAGAAAAAAAA
DNA 2: TTTTTTTTCTAGTGTGTGTGTGTGTCCGTCTGTGTA
With B26, in the data set with AP2-HC D1, the binding signal is 11.9 ln median PBM intensity, better of two orientations.

B27: CACACA_site2623 (dsDNA)
DNA 1: TAATAAATAAATGACACACACACACCCAAAAAAAAA
DNA 2: TTTTTTTTTGGGTGTGTGTGTGTCATTTATTTATTA
Take B27: the binding signal in the data set with AP2-HC D1 is 12.1 ln median PBM intensity, better of two orientations.

B28: CACACA_site4189 (dsDNA)
DNA 1: AAAAAAAACGGACACACACACATTCAATATAAAACA
DNA 2: TGTTTTATATTGAATGTGTGTGTGTCCGTTTTTTTT
Take B28: the binding signal in the data set with AP2-HC D1 was 11.8 ln median PBM intensity, better of two orientations.

B29: CACACA_site6991 (dsDNA)
DNA 1: ACAGAAAAAAGACACACACACATAATATACATACAT
DNA 2: ATGTATGTATATTATGTGTGTGTGTCTTTTTTCTGT
As to B29, the binding signal with AP2-HC D1 is 11.8 ln median PBM intensity, better of two orientations.

B30: CACACA_site5303 (dsDNA)
DNA 1: CCCCCCCACGGACACACACACATACATACCACATAT
DNA 2: ATATGTGGTATGTATGTGTGTGTGTCCGTGGGGGGG
As for B30, the binding signal is 11.2 ln median PBM intensity, better of two orientations in the data set with AP2-LT D1 and 11 ln median PBM intensity, better of two orientations in the data set with PF3D7_0420300 D1.

B31: CACACA_site6387 (dsDNA)
DNA 1: TTAACAAATAGACACACACACACACGCAAAAAAAAA
DNA 2: TTTTTTTTTGCGTGTGTGTGTGTGTCTATTTGTTAA
For B31, the binding signal with AP2-HC D1 is 12 ln median PBM intensity, better of two orientations.

B32: CACACA_site6495 (dsDNA)
DNA 1: TTAAACTTGAGACACACACACACACGGATATAAAAA
DNA 2: TTTTTATATCCGTGTGTGTGTGTGTCTCAAGTTTAA
In the case of B32, in the data set with AP2-HC D1, the binding signal is 11.8 ln median PBM intensity, better of two orientations.

B33: CACACA_site4441 (dsDNA)
DNA 1: CAAATACCCGGACACACACACACAAAAAAAAAAAAA
DNA 2: TTTTTTTTTTTTTGTGTGTGTGTGTCCGGGTATTTG
Regarding B33, the binding signal with AP2-HC D1 was 11.9 ln median PBM intensity, better of two orientations.

B34: CACACA_site372 (dsDNA)
DNA 1: AAGCATACATCAAGCACACACACACCCACACCCACA
DNA 2: TGTGGGTGTGGGTGTGTGTGTGCTTGATGTATGCTT
As for B34, the binding signal with AP2-HC D1 is 11.9 ln median PBM intensity, better of two orientations.

B35: CACACA_site2012 (dsDNA)
DNA 1: AATATGAACAGACACACACACACAAAAAAAAAAAAA
DNA 2: TTTTTTTTTTTTTGTGTGTGTGTGTCTGTTCATATT
For B35, the binding signal with AP2-HC D1 was 11.8 ln median PBM intensity, better of two orientations.

B36: CACACA_site3848 (dsDNA)
DNA 1: ATAAAACAAAAACACACACACATACACAAAAAAAAA
DNA 2: TTTTTTTTTGTGTATGTGTGTGTGTTTTTGTTTTAT
In the case of B36, in the data set with AP2-HC D1, the binding signal was 12.2 ln median PBM intensity, better of two orientations.

B37: CACACA_site6714 (dsDNA)
DNA 1: ATAATACACAAGCACACACACACACGGATATTTATA
DNA 2: TATAAATATCCGTGTGTGTGTGTGCTTGTGTATTAT
With B37, the binding signal in the data set with AP2-HC D1 was 11.8 ln median PBM intensity, better of two orientations.
